1 molecule from PMC11994974 (Virus Research, 2025) can be followed below.

Experiment [1] has as its target recombinant NP of influenza A/PR/8/34 (H1N1) purified from bacteria (Influenza A virus A/Puerto Rico/8/1934 …, UniProt P03466). The experiment can be described thus: far-Western, overlay or dot blot.
Experiment [2] addresses NP in H1N1 viral lysate (A/Puerto Rico/8/34) (Influenza A virus A/Puerto Rico/8/1934 …, UniProt P03466). The experiment in a line: far-Western, overlay or dot blot.
In experiment [3] the target is NP WT 1–498 (deletion library, wild type) (Influenza A virus A/California/07/2009 …, UniProt C6KQ05, strain). The experiment in a line: far-Western, overlay or dot blot.
Experiment [4] deals with recombinant nucleoprotein (NP) of influenza A/Brisbane/10/2007 (H3N2) (Influenza A virus A/Brisbane/10/2007 …, UniProt P03466, strain). The experiment can be described thus: BLI.

B1: anti-NP mouse monoclonal antibody HB65 (antibody, V domains shown)
VH: EVKLVESGGALVNPGGSLKLSCAASGFIFSSYAMSWIRQTPEKRLEWVASTSGGGTTYYLDSVRGRFTISRDNARRILYLQMTSLRSEDTAIYFCGRDGNWFTSWGQGTLVTVSI
VL: NIVMTQSPKSMSMSVGERVTLTCKASENVVTYVSWYQQKPEQSPKLLIYGASNRYTGVPDRFTGSGSATDFTLTISSVQAEDLADYHCGQGYSYPYTFGGGTKLEIK
For the molecule B1, the binding result in experiment [1], in experiment [2] and in experiment [3] was “binds” each time. Also, the Kd (as a rule, the equilibrium constant for the complex coming apart) in experiment [4] was determined as 120 ± 21 nM.
